# Data: article PMC8086558, “Membrane Interactions of the Peroxisomal Proteins PEX5 and PEX14” (Frontiers in Cell and Developmental Biology, 2021)
# B1: PEX5 NTD (residues 1–315) (domain or fragment)
# chain: not shown
# notes: human PEX5, N-terminal intrinsically disordered domain, residues 1-315, codon-optimised synthetic gene; harbours eight WF-like motifs (W0-W7); No primer pair is printed for the 1-315 construct; also called PEX5 (1–315); Pex5 (1–315); source: E. coli BL21 (DE3), purified (Ni-NTA under urea lysis, SEC Superdex S75), lyophilized; not shown: His6, N-terminal, kept
# B2: PEX14 NTD (residues 1–104) (domain or fragment, human, UniProt O75381 1-104, looked up)
# chain: MASSEQAEQPSQPSSTPGSENVLPREPLIATAVKFLQNSRVRQSPLATRRAFLKKKGLTDEEIDMAFQQSGTAADEPSSLGPATQVVPVQPPHLISQPYSPAGS
# notes: human PEX14, N-terminal region up to the transmembrane span, residues 1-104, codon-optimised synthetic gene; holds the globular helical domain (residues 16-80); also called PEX14 (1–104); Pex14 (1–104); source: E. coli BL21 (DE3), purified (Ni-NTA, TEV cleavage, reverse Ni2+ column, SEC Superdex S75); not shown: His6, N-terminal, cleaved
# How the values were obtained:
# Conditions in all cases: both partners purified
# [1] = biological target: B2; assay: ITC; 50 uM PEX5 (1-315) injected into the cell with 30 uM PEX14 (1-104); 25 °C; 20 mM NaP pH 6.5, 100 mM NaCl, no bicelles; triplicates; one-site model, number of sites set to 1/8
# [2] = biological target: B2; assay: ITC; 50 uM PEX5 (1-315) injected into the cell with 30 uM PEX14 (1-104); 25 °C; 20 mM NaP pH 6.5, 100 mM NaCl with 44 uM DMPC/D7PC bicelles; triplicates; one-site model, number of sites set to 1/8
# [3] = biological target: B1; assay: ITC; 50 uM PEX5 (1-315) injected into the cell with 30 uM PEX14 (1-104); 25 °C; 20 mM NaP pH 6.5, 100 mM NaCl, no bicelles; triplicates; one-site model, number of sites set to 1/8
# [4] = biological target: B1; assay: ITC; 50 uM PEX5 (1-315) injected into the cell with 30 uM PEX14 (1-104); 25 °C; 20 mM NaP pH 6.5, 100 mM NaCl with 44 uM DMPC/D7PC bicelles; triplicates; one-site model, number of sites set to 1/8
dH [1] [kcal/mol],stoichiometry N [1],dH [2] [kcal/mol],stoichiometry N [2],Kd [3] [nM],Kd [4] [nM],Binder
-147 ± 7,0.125,-92 ± 3,0.125,,,B1
,,,,147 ± 16,260 ± 26,B2
